Experimental data from patent US7629169B2, “Methods for the production of platelet-derived growth factor-responsive neural precursor cells” (Stem Cell Therapeutics Corp., priority 2004, dated 2009).

B1: BDNF: brain-derived neurotrophic factor (protein, UniProt P23560 19-247, looked up)
Neurotrophic factor BDNF …: APMKEANIRGQGGLAYPGVRTHGTLESVNGPKAGSRGLTSLADTFEHVIEELLDEDQKVRPNEENNKDADLYTSRVMLSSQVPLEPPLLFLLEEYKNYLDAANMSMRVRRHSDPARRGELSVCDSISEWVTAADKKTAVDMSGGTVTVLEKVPVSKGQLKQYFYETKCNPMGYTKEGCRGIDKRHWNSQCRTTQSYVRALTMDSKKRIGWRFIRIDTSCVCTLTIKRGR
B2: NT-3: neurotrophin-3 (protein, UniProt P20783 139-257, looked up)
Neurotrophin-3: YAEHKSHRGEYSVCDSESLWVTDKSSAIDIRGHQVTVLGEIKTGNSPVKQYFYETRCKEARPVKNGCRGIDDKHWNSQCKTSQTYVRALTSENNKLVGWRWIRIDTSCVCALSRKIGRT
B3: CNTF: ciliary neurotrophic factor (protein, UniProt P26441 1-200, looked up)
Ciliary neurotrophic factor: MAFTEHSPLTPHRRDLCSRSIWLARKIRSDLTALTESYVKHQGLNKNINLDSADGMPVASTDQWSELTEAERLQENLQAYRTFHVLLARLLEDQQVHFTPTEGDFHQAIHTLLLQVAAFAYQIEELMILLEYKIPRNEADGMPINVGDGGLFEKKLWGLKVLQELSQWTVRSIHDLRFISSHQTGIPARGSHYIANNKKM

What was measured:
[1] = tested on: PDGF-responsive neural precursors (PRPs) from dissociated E14 MGE/LGE; experiment: Primary neurosphere generation from dissociated E14 ganglionic eminences; assay type: cell-based, mouse; settings: for neurosphere size / number of neurospheres produced: neurotrophin in the presence of PDGF
Description: Cell culture. The culture medium (MHM) was composed of DMEM/F-12 (1:1) including HEPES buffer (5 mM), glucose (0.6%), sodium bicarbonate (3 mM), glutamine (2 mM), insulin (25 μg/ml), transferrin (100 μg/ml), progesterone (20 nM), putrescine (10 μM), and sodium selenite (30 nM; all from Sigma, St. Louis, Mo., except glutamine from Invitrogen, Carlsbad, Calif.). The lateral, medial, or both ganglionic eminences (LGE, MGE or both) were removed from Embryonic Day 14 (E14) mouse embryos and mechanically dissociated with a fire-polished Pasteur pipette in MHM. Cells were plated at a density of […] unless otherwise indicated.
For neurosphere generation, PDGF-AA (100 ng/ml; Peprotech, Rocky Hill, N.J.), PDGF-BB (100 ng/ml; Peprotech), EGF (20 ng/ml; Peprotech), FGF2 (20 ng/ml; R&D [Minneapolis, Minn.])+heparan sulfate (2 μg/ml; HS; R&D), SHH (2 ug/ml; R&D), cyclopamine (5 μM; Toronto Research Chemicals, North York, Ontario), and/or DMSO (0.1%; carrier) was added to the MHM. MHM used to generate neurospheres also contained 2% B27 (Invitrogen).
[…] is one of the earliest markers of OLPs, and signaling by PDGF-AA is required for the generation of most oligodendrocytes (Fruttiger et al., Development 126:457 (1999)). Increasing concentrations of PDGF-AA were used to determine whether stimulation of dissociated E14 medial and lateral ganglionic eminences. (MGE and LGE, respectively) results in generation of neurospheres. The neurosphere assay was used because manipulation of primary cells is minimal compared to the immunopanning procedures used to isolate O-2A progenitors.
The effect of brain-derived neurotrophic factor (BDNF), neurotrophin-3 (NT-3), and nerve growth factor (NGF) on PRPs was determined. Cells were cultured as previously reported (Chojnacki et al., J Neurosci 24(48):10888 2004) in the presence of various combinations of PDGF, brain-derived neurotrophic factor (BDNF), NT-3, nerve growth factor (NGF), and the effects on neurosphere generation characterized. MHM is the defined medium used in cultures without growth factor.

[2] = tested on: PDGFRα-labeled cells (PRPs); experiment: PDGFRα and Tunel staining of dissociated primary cells, 24 hours; assay type: cell-based
Description: Dissociated primary cells were cultured in 24-well plates with or without NT-3 for 24 hours, stained for PDGFRα and Tunel, and the number of labeled cells counted.

[3] = tested on: PDGF-generated neurospheres; experiment: Differentiation of primary PDGF-AA-generated neurospheres, immunocytochemistry; assay type: cell-based, mouse

Molecule	neurosphere size [1]	number of neurospheres produced [1]	generation of neurospheres by timing of treatment ([1]; initial 24 hour NT-3 vs exposure after first 24 hours)	Tunel and PDGFRα co-labeled cells ([2]; with or without NT-3, 24 hours)	PDGFRα-labeled cells ([2]; with vs without NT-3, 24 hours)	GFAP-immunoreactive cells (astrocytes) ([3]; 2 DIV differentiation)	OLIG2 / O4 expression ([3]; 6 DIV PDGF-generated neurospheres differentiated 2 DIV)
B1	promote the generation of larger neurospheres	more neurospheres are produced					
B2	promote the generation of larger neurospheres	more neurospheres are produced	more effective at promoting the generation of neurospheres than continued exposure to NT-3 after the first 24 hours	no Tunel and PDGFRα co-labeled cells were observed	more PDGFRα-labeled cells		
B3						did not induce GFAP expression	no effect on OLIG2 or O4 expression
